In patent US20030199423A1:

How the values were obtained:
[1] = target: CD18-independent counterreceptor for ICAM-R on Jurkat cells; test: inhibition of Jurkat cell adhesion to coated soluble ICAM-R, peptide 1-2 mg/ml
[2] = target: T1, soluble human ICAM-R (human), P32942; test: blocking of biotinylated murine ICR-8.1 binding to ICAM-R; competitor murine ICR-8.1
T1 chain: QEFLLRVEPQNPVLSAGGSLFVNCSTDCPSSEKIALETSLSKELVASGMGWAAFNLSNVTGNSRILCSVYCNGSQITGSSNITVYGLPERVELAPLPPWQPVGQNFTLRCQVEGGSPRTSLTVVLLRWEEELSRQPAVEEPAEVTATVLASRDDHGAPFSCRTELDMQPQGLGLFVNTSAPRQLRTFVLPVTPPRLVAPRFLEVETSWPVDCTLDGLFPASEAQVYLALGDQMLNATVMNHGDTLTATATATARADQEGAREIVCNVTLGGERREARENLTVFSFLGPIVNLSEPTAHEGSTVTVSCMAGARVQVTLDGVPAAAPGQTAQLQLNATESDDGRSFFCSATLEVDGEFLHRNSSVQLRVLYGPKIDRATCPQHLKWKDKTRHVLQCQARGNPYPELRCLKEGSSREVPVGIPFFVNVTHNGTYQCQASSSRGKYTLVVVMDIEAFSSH

[3] = target: T1, soluble human ICAM-R (human), P32942; test: ELISA on coated baculovirus soluble ICAM-R

GDQML [ICAM-R domain 3 peptide (GDQML), residues 230-234]
% Inhibition [1]: 36%

GERREA [ICAM-R peptide, residues 271-276]
% Inhibition [1]: 11%

DGQST [ICAM-1 peptide (DGQST), residues 70-74]
% Inhibition [1]: 9%

GDQRL [ICAM-1 peptide (GDQRL), residues 228-232]
% Inhibition [1]: 22%

EKIALET [ICAM-R peptide, residues 32-38]
% Inhibition [1]: 10%

NGSQI [ICAM-R domain 1 peptide (NGSQI), residues 72-76]
% Inhibition [1]: 17%

B1: recombinant ICR-8.1 antibody miHuVHI/MuVK (antibody)
chain 1: QIQLVQSGAEVKKPGASVKVSCKASGYTFTDCIILWVRQAPGQGLEWMGKINPYFGTTTYAQKFQGRVTITADTSTSTAYMELSSLRSEDTAVYYCARKEAYPDAMDYWGQGTLVTVSS
chain 2: DAVMTQTPLSLPVSLGDQASISCRSSQSLVHSNGDTYLHWYLQKPGQSPQLLIYKVSNRFSGVPDRFSGSGSGTDFTLKLSRVEAEDLGVYFCSQSTHVPYTFGGGTKLEIK
modifications: not checked
fold less well competing than murine ICR-8.1 [2]: 2 fold | fold improvement in binding over the other recombinant ICR-8.1 antibodies [3]: 2 fold
